Reference: the DeepSol protein solubility set

Assay: soluble on expression in E. coli; label from the status in PepcDB or PDB records

**Q.** For “SHMSKAKFDKAVEIVQSLPKDGPIKPTQDEQLYFYKYFKQATVGDVNISRPGLMDFTGKAKWDAWKSVEGTSKEVAYQKYVEKLLEILKKADTEESKKYIAEIEAA”, which “soluble on expression in E. coli” value is on record?
**A.** soluble

**Q.** For “AMADIGSMGDPLTWSKALKKLEKVTVQGSQKLTTGNCNWALSLVDLFHDTNFVKEKDWQLRDVIPLLEDVTQTLSGQEREAFERTWWAISAVKMGLQINNVVDGKASFQLLRAKYEKKTANKKQSEPSEEY”, which “soluble on expression in E. coli” value is on record?
**A.** soluble

**Q.** For “MNLAGSTIQAYRQRKIESLAKMSNMSQDDVTTGLRTVQQGLEALREEHSTISNTLETSVKGVKEDEAPLPKQKLSQINDNLDKLVCGVDETSLMLMVFQLTQGMDAQHQKYQAQRRRLCQENAWLRDELSSTQIKLQQSEQMVAQLEEENKHLKYMASIKQFDDGTQSDTKTSVDVGPQPVTNETLQELGFGPEDEEDMNASQFNQPTPANQMAASANVGYEIPARLRTLHNLVIQYASQGRYEVAVPLCKQALEDLEKTSGHDHPDVATMLNILALVYRDQNKYKEAANLLNEALSIREKCLGESHPAVAATLNNLAVLFGKRGKFKDAEPLCKRALEIREKVLGDDHPDVAKQLNNLALLCQNQGKYEEVEKYYKRALEIYESKLGPDDPNVAKTKNNLSSAYLKQGKYKEAEELYKQILTRAHEREFGQISGENKPIWQIAEEREENKHKGEGATANEQAGWAKAAKVDSPTVTTTLKNLGALYRRQGKYEAAETLEDVALRAKKQMSESRRMERSVMY”, which “soluble on expression in E. coli” value is on record?
**A.** not soluble

**Q.** Which “soluble on expression in E. coli” value does the source give for “MGSDKIHHHHHHMNTLVDAGFSPRREGFAPQPLIEALLSILPAHCVLHREEDTRPYECDGLSLYRALPAVVALPEDEAQVRAIMQLCKRMNVPIVARGAGTGLSGGAMPHAQGVLLGLSKLNRIKRIDPAGGTAVVEPGVRNLAISEAAAPYGLYYAPDPSSQIACSIGGNVAENSGGVHCLKYGLTVHNVLRVRVVTIDGEIVELGSEAPDAPGLDLLSVFVGSEGMLGVVTEITVKLIPSPACAQVVMASFASVEAAGNAVTQIIAAGLIPAGLEMMDRQAVHMVEPFVQAGYDLQAQAILLCEADGTPQEVAHEVAMMEAVFKRAGATSLQVSGSEAERLRFWAGRKNAFPAAGRVSPDYYCMDGTIPRRHLARVLGAIEQMEDDFGLRCANVFHAGDGNLHPLILFDSNKPDEVERAEKFGAAILELCVQVGGTVTGEHGVGMEKINQMCVQFSRDELDAFLAVKRAFDPPGLLNPEKVIPTLARCAEYGKMHVHAGEMRFPDLARF” here?
**A.** not soluble

**Q.** With “MSQNSDTFDSGLQMEVHKMAEADNSSVQQKFDAIRDYIGRKETTIILCEHDDSRKIKLTLNKQRMESSMFLTEMPDGGIQEKTKFHRNGLAVCSYNAFDEVDLPLADSYIFYGLPSNVEAFPRMLHGIEKSAHKENKIVFIDIVVSILEKIQIKVVSFELYNRKCTVPTWVAELVITYCAPIEEQQQRIEEIRRTRASVPVAISDAANGSAEMVPSNTTGSSGSPMSTAPVPAAKKEKVQYESIRQIRPNAQGRYFVPARMINMDIEMSNDEYSPDESENDENEYDYENAARYDDGYDEGHEYCQ” as the sequence, how does the “soluble on expression in E. coli” value read?
**A.** not soluble

**Q.** For “MATNAKPVYKRILLKLSGEALQGTEGFGIDASILDRMAQEIKELVELGIQVGVVIGGGNLFRGAGLAKAGMNRVVGDHMGMLATVMNGLAMRDALHRAYVNARLMSAIPLNGVCDNYSWAEAISLLRNNRVVILSAGTGNPFFTTDSAACLRGIEIEADVVLKATKVDGVFTADPAKDPSATMYDQLTYSEVLDKELKVMDLAAFTLARDHKLPIRVFNMNKPGALRRVVMGEKEGTLITELEHHHHHH”, which “soluble on expression in E. coli” value is on record?
**A.** not soluble

**Q.** With “MAHHHHHHMLKELNLNTTFLRQDYRTPLKQLSVDPIFCRRRGGRAILHFEMNQVQGTVAVTLTGCVAQACVPHACGAGWGNMKVEQLRSFFLSFVVVADAAQPSYFLWGEVSVHEMNGTAGNHLAIDGQSLRTCTTASVIPPLSEIPPEVFIVKAKKFRCQMHEKGFGDSTTCP” as the sequence, how does the “soluble on expression in E. coli” value read?
**A.** not soluble

**Q.** Which “soluble on expression in E. coli” value does the source give for “MGSDKIHHHHHHMTETLLVTGAAGQLGRGVIRYLMDTHKVPPAKIIATTRNPENVADLAARGVVVRAADFNDATSLENAFKGADRVLIISTSDLDLKTGRRLKQHEAAVAAAKKAGVSHLLYTSMPNPEPVSPVLFAGDHYGTEQAIKASGIAYTIFRNGWYQENLFIALPHAIASGQWYTSAGDGRIAHGSRDDMAAAIAAGLASGSTDSKTYTLTGPQAYTTAEIAALVSEVTGKPLEVIQLPDEALTEGVKAAGVPEEFARVIVSFDANTRSGRIAMATDAVETLSGRKPRTLKQFLEANKAALAG” here?
**A.** not soluble

**Q.** With “MSANKELQQGYSDYSAASDQAALLNRLITAMQKGELTDELLEHIPELGDAKKLNDKLKYRKSILEKSIAEQAAKNKKNGVKATSTSSPSSSTSAPAEKKAKKDGKTGGAPPKQAKKVDYVTVEDYGSSIFGRLQSLFKKAIEDAFPGLDVPLLLAETPNPQFGDYQCNSAMPIAAKLKANKINKRPGDVAKEIQAKLPTKIDFVEKIDVMPAGFINIFLNTDYLRRQISLLASEGVKLPKLTRKRVLVDFSSPNIAKEMHVGHLRSTIIGDSICRLFEAVGFDVLRVNHIGDWGTQFGMLIAHLYDRFPDFLKKLPDISDLQAFYKESKKRFDEDEQFKKRAYEYVVKLQSHDGDIVKAWNTICDVSKKYNQIVYNYLDIKIKDVGESFYQDKMIELVKWVKTNKPDMLREEDGRQIMFPTGCDIPLTVVKSDGGFTYDTSDLAALKYRMLEEKCDWNIYVVDSGQSLHLETVYAAGRDFGWYDESIQRVEHVAFGLVLGDDKKKFKTRSGETVRLLDLLSEGVKRATEKLIEKGRETAMSEEQLVAARDAVAFGCVKYADLSHTRTQDYVFSFDRMLEDRGNTAVYLLYAYTRIQSIFEKDEVKNVDLVKYIASTPTLPLDHPGEFKLAKQLLKLSDCVLLVLDSLMLHQMCDYVYQLATLFHDFYNECYVIENKEGEKPFVHMHRLALCDVTRKVMSTCFKILGLREVNKM” as the sequence, how does the “soluble on expression in E. coli” value read?
**A.** not soluble

**Q.** With “MSLPAYKRVLLKLSGEALMGDDAFGINRSTIEGMVNDIAEIVRLGVQVAVVIGGGNIFRGVAGGAAGMDRATADYMGMLATMMNALALQDAMRHANIEGRVQSALRMDQVVEPYIRPRAIRQLEEGKVVIFAAGTGNPFFTTDTAAALRGSEIGAEIVLKATKVDGVYTADPKKDPSATRYTTISFDEAISRNLQVMDATAFALCRDQKLPIKVFSIQKPNALKRVIMGEDEGTLEGHHHHHH” as the sequence, how does the “soluble on expression in E. coli” value read?
**A.** soluble

**Q.** With “MSNCEIIAVHGGACAKFDASLAEDCRFACGTGTVENALTDLERIEKFNCGFGSHLTIDQEVECEASYMSSKNLSFGAVGAISNVFHPSRVARHLAHSNWWKQRRLLHPLILVGRGAEKYAVKNDFPTCTPEELVSKAAKESFEKYLHRMLHPYDTHDTVGAISINTNTMNSESGTSSGGIVLKHSGRLGHSCVYGSGTWSERRQYEEPFDQVSERTISICSTGHGESLVKADFCRGIATRVLDDEEGIMYSEIIREFIHEKMEHGSRYGGIALIADKFKDRMSLEFLIFHNCRYLPAAVRCRDNQIRVFESQFDPDQCTTDPKCVIESFIM” as the sequence, how does the “soluble on expression in E. coli” value read?
**A.** not soluble

**Q.** Which “soluble on expression in E. coli” value does the source give for “MAPPAQPPPVAVKNTKEAWTKFMKKKAEQAVYPSKESSTLQPKYLFDASTLVLPMCFECRRASRHLEMAINLCSICRANFEAQIASRFFRHDVLLVKRKLEANQDTTNLKE” here?
**A.** not soluble

**Q.** Which “soluble on expression in E. coli” value does the source give for “MASLATSISGSFRILVKSSSTRNGFPVISDQNPSFVLFANKRRHISRTAIFHRSAISGSSQGEKISPLASGVSSGLYSAQTFDLTPQNVDLVLEDVRPFLISDGGNVDVVSVEDGVVSLKLQGACTSCPSSSTTMTMGIERVLKEKFGDALKDIRQVFDEEVKQITVEVSEASF” here?
**A.** not soluble

**Q.** For “MGSDKIHHHHHHAQEERNQGIIWSYLHGWEYGIKAGFSIGGTSPLPLPEEIRKIDSYAPGGLAISIEGNATKWFDTKWGMTVGVRLENKNMTTEATVKNYGMKIINTNGGELQGLWTGGVKTKVKNSYLTIPVVANYKVSKRWKVSAGPYVSYLIERNFSGHVYEGHLRTPDQTGSRVDFTGESIATYDFSDNLRKFQWGLQLGGEWRAFKHLNVYADLTWGLNDIFKKDFDTISFAMYPIYLNIGFGYAF”, which “soluble on expression in E. coli” value is on record?
**A.** not soluble

**Q.** Which “soluble on expression in E. coli” value does the source give for “GPGSMAHEHGNEFAGPGGGNGGNGGNVMLQCVKQHTDLSHIEDLGSQISAGAGCCGFSREAHGKRGQDLWLQLPLGTQVVDMDTNEVQYDMDEEGMQIVLLEGGQGGKGNAAFANKWHHSPIESTKGLPGNTMLAQIELKTIADCGLIGYPNAGKSSLLSAISASKPTIAPYAFTTLRPYVGVLHDLYGNVCRVADIPGLIEGAYENRGLGHQFLRHVERTKCLALVVDMCNTYVPDTGLRNSSEVLQPWDVVELLLQELEYYLPGMSQRVIMTFANKMDIEKDSTGTATQVKLSELKRRVSMPVFPISAALGIHLGPQHEQTGLAPALQFMCGEVFARQSQEREMRQFRFSHERAQLERAFRAKHNGVFLPQVHALGAHGAEASQDLDDEAADRGGSLVDQQLDFLGNSGLGVKFDAYENSAARGQLHRYRDLTMKGKYWNLTRQDGEVMKGEKWS” here?
**A.** not soluble

**Q.** For “GPGSMTSPAQAQVHSAPSRHAHTSILSQQMLSTPAGHPVSQPDTSQAAPDAPVWRPTTVPWKPVDTQQSACSALPAKTDDAIAAHSLQWERDAAVGNPNDESGRVVSQAFAFPRWMGPPALTSTATSREEGDSPTATVPSMEERWSTFQRLAQASEATFRSMSEATARQHADVTAHQKEIAAYQESQRQLTLQQQQRLDSLTRECAQLRQTEASTKEVVAHQVERLVALESELQTTRVQLSEIRLAQAQCVEERKRLQQACKMHEVHTSELQASLQFADEVVRSMRQTVAACEREKNEALMQQYSNFESYRNNLIAAYDKRAAEARDEFAKRVESLQAGMLETVAKREEQLKASWEETATRMRHEYDELVRLGQQRRAAMDTELRERKEQLERDKEFMRVQQREEADMMEQRFRAREETLLDDIARRERELREREAVLRAAQAQQEVDVQRRLQAREAELRAAHDAALKRMADQAAAEREKLSENFMERLQQLSNAHMQQERELERMHREKEREMAQRYRLSGIDGGDRGEVRDRRATEYALASPSMAKEALLKKFETVEQRQRERSDKLRSAFSAQENELQPPL”, which “soluble on expression in E. coli” value is on record?
**A.** soluble

**Q.** Which “soluble on expression in E. coli” value does the source give for “MKIHSYIFSLLACLVIALPGYSQVDRNETLIRSALHGLEYEIKAGFSIGGTAPLPLPVEIRSIDGYNPTLAISIGGEVTKWFAVQNKLGVIVGLRLENKAMTTEATVKNYNMEILGQGGERISGVWTGGVKTKVHTSGLTIPLMATYKLSNRWNIKAGPYFSYLLSREFSGHVYEGYLREGDPVGPKVEFTDGKIATYDFSDDLRHFQWGLQIGAGWRAFKHLNIYADLTWGLNDIFRNDFQTITFAMYPIYLNIGFGYAF” here?
**A.** not soluble

**Q.** With “QVQLLQPGAELVKPGASVKLSCKASGYTFTSYWMYWVKQRPGQGLEWIGEIDPSDSYTNYNQNFKGKATLTVDKSSSTAFMQLSSLTSQDSAVYFCARSPHYYGTTYNYPMDYWGQGTSVTVSSAKTTPPSVYPLAPGCGDTTGSSVTLGCLVKGYFPESVTVTWNSGSLSSSVHTFPALLQSGLYTMSSSVTVPSSTWPSQTVTCSVAHPASSTTVDKKLEP” as the sequence, how does the “soluble on expression in E. coli” value read?
**A.** soluble

**Q.** With “MKPAAREARLPPRSPGLRWALPLLLLLLRLGQILCAGGTPSPIPDPSVATVATGENGITQISSTAESFHKQNGTGTPQVETNTSEDGESSGANDSLRTPEQGSNGTDGASQKTPSSTGPSPVFDIKAVSISPTNVILTWKSNDTAASEYKYVVKHKMENEKTITVVHQPWCNITGLRPATSYVFSITPGIGNETWGDPRVIKVITEPIPVSDLRVALTGVRKAALSWSNGNGTASCRVLLESIGSHEELTQDSRLQVNISGLKPGVQYNINPYLLQSNKTKGDPLGTEGGLDASNTERSRAGSPTAPVHDESLVGPVDPSSGQQSRDTEVLLVGLEPGTRYNATVYSQAANGTEGQPQAIEFRTNAIQVFDVTAVNISATSLTLIWKVSDNESSSNYTYKIHVAGETDSSNLNVSEPRAVIPGLRSSTFYNITVCPVLGDIEGTPGFLQVHTPPVPVSDFRVTVVSTTEIGLAWSSHDAESFQMHITQEGAGNSRVEITTNQSIIIGGLFPGTKYCFEIVPKGPNGTEGASRTVCNRTGKQI” as the sequence, how does the “soluble on expression in E. coli” value read?
**A.** soluble
